# Patent US20230248799A1, “COMBINATION THERAPY OF SUBSTANCE-P FOR MOBILIZATION OF HEMATOPOIETIC STEM CELLS” (ELPHIS CELL THERAPEUTICS, priority 2020, published 2023)
# B1: G-CSF: recombinant granulocyte colony stimulating factor, a glycoprotein stimulating neutrophil progenitor cells and mature neutrophils (protein, UniProt P09919 31-207, looked up)
# Granulocyte …: TPLGPASSLPQSFLLKCLEQVRKIQGDGAALQEKLVSECATYKLCHPEELVLLGHSLGIPWAPLSSCPSQALQLAGCLSQLHSGLFLYQGLLQALEGISPELGPTLDTLQLDVADFATTIWQQMEELGMAPALQPTQGAMPAFASAFQRRAGGVLVASHLQSFLEVSYRVLRHLAQP
# Legend:
# [1] = test system: immune cells in the blood; experiment: Effect of SP on blood immune cells (CBC count, percentages in total leukocytes); conditions: rabbits, G-CSF 10 µg/kg intravenous twice; day 2
# Procedure: To confirm the effect of SP on the percentage of immune cells in blood, five (5) rabbits were prepared for each group. After administering SP (6.7 µg/kg) via ear vein twice, the percentages of immune cells in the blood of the same animals were compared for 3 days. G-CSF (10 µg/kg, JW Pham) was used at a conventional clinical dose and treated with the same regimen as that of SP (i.e., intravenous administration). After the administration, 1 ml of the blood was collected at one-day intervals, transferred to a tube containing EDTA and analyzed by using a diagnostic device.
# [2] = test system: hematopoietic stem cells in the blood; experiment: Mobilization of hematopoietic stem cells by SP alone (HSC-CFU colony count of blood cells); assay type: in vivo; conditions: rabbits; for level of hematopoietic stem cells in blood on the basis of 1X on day 0: intravenous (ear vein) twice, SP 6.7 µg/kg, G-CSF 10 µg/kg
# Procedure: In order to confirm the effect of the drug administered in a normal physiological state alone, the effect of SP was tested using a normal group without wounds. This is because, in the case of injured animals, there are many other factors secreted by the wounds, and, thus, it is difficult to differentiate such factors from the effect of the administered drug, and especially because both SP and G-CSF are endogenous substances in the body.
# To confirm the effect of SP alone on mobilization of hematopoietic stem cell, five (5) rabbits were prepared for each group. SP (6.7 µg/kg, sigma Aldrich) was administered twice via Ear vein, and the levels of hematopoietic stem cells in the blood of the same animals for 3 days were compared.
# After injection of the drug, 5 ml of blood was collected once a day, put into a 15 ml tube (Falcon), and diluted twice by adding PBS (Welgene). To isolate blood cells, each of 5 ml Ficoll-Paque (Amersham) was placed in a new tube, and diluted blood was placed on top of it. The tubes were carefully handled so as not to mix the Ficoll layer and blood layer, and, after the blood layers were completely put in the tubes, centrifugation (813 g, Megafuge 8R, Thermo Scientific) was performed for 20 minutes. After centrifugation, the layers were separated, resulting in a total of four layers. The uppermost layer was plasma, the second layer was the blood cell layer excluding erythrocytes, the third layer was Ficoll, and the bottom layer was the erythrocyte layer. Among them, only the blood cell layer was separated and put into a tube, and PBS was then added thereto to centrifuge same. 5×10^6 blood cells were placed in a 35 mm plate and cultured in HSC-CFU media (Hematopoietic stem cells-colony forming unit media, purchased from Miltenyi). While the cells were cultured in the initial state for 2 weeks without exchanging the media, the number of colonies was observed every day and finally counted.
molecule,measurement,setting,value
B1,increase of the percentage of neutrophils in the blood,[1],about 65%
same,level of hematopoietic stem cells in blood on the basis of 1X on day 0,[2]; day 1,2 X
same,level of hematopoietic stem cells in blood on the basis of 1X on day 0,[2]; day 2,2.5 X
same,level of hematopoietic stem cells in blood on the basis of 1X on day 0,[2]; day 3,0.6 X
same,effect on mobilization of hematopoietic stem cells (in words),"[2]; intravenous twice, followed for 3 days, FIG. 1",negligible effect on mobilization of hematopoietic stem cells
